Source: article PMC7536395

T1: endogenous mouse GIPR (mouse (endogenous in primary mouse adipocytes and Neuro-2a cells)) (UniProt Q0P543)
T1 sequence: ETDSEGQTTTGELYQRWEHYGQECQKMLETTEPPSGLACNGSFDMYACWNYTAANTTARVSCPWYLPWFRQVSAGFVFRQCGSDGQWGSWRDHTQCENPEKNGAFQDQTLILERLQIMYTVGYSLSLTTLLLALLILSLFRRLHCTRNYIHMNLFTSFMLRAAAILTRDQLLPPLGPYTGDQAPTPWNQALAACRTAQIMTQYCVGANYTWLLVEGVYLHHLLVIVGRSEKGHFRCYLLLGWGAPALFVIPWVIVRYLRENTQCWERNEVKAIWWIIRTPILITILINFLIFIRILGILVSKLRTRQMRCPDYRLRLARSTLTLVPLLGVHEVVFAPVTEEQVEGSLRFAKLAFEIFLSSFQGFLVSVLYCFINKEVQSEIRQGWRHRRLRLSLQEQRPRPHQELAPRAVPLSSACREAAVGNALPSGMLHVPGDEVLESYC

T2: endogenous rat GIPR in INS1 832/13 cells (rat (endogenous in INS1 832/13)) (UniProt P43219)
T2 sequence: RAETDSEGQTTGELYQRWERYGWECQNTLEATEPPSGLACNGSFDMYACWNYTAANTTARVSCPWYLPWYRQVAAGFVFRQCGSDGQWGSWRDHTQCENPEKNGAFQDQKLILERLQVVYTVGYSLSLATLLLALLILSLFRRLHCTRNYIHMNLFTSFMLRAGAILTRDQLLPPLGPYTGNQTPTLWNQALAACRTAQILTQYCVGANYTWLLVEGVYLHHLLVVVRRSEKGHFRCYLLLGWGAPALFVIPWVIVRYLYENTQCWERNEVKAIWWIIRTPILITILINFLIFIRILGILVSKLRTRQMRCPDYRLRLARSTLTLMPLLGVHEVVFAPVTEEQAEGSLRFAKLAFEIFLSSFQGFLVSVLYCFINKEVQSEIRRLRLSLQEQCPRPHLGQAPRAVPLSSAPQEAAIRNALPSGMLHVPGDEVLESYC


What was measured:
[1] = target: T1, endogenous mouse GIPR (mouse (endogenous in primary mouse adipocytes and Neuro-2a cells))
[2] = target: T1, endogenous mouse GIPR (mouse (endogenous in primary mouse adipocytes and Neuro-2a cells)); remark: listed apart in the source
[3] = target: T2, endogenous rat GIPR in INS1 832/13 cells (rat (endogenous in INS1 832/13))

EC50 of cAMP production in mouse Neuro-2a neuroblastoma cells [1] [nM] | EC50 of cAMP production in mouse primary adipocytes differentiated in vitro [2] [nM] | EC50 of glycerol release (lipolysis) from primary mouse adipocytes differentiated in vitro [2] [nM] | EC50 of cAMP production in rat INS1 832/13 cells [3] [nM] | Binder
6.35 | 3.8 | 13 | – | YAEGTFISDYSIAMDKIRQQDFVNWLLAQRGKKSDWKHNITQ (ligand) [mouse GIP]
– | – | – | 0.99 | YAEGTFISDYSIAMDKIRQQDFVNWLLAQKGKKNDWKHNLTQ (ligand) [rat GIP]
